Experimental data: patent US5837516A, “Subtilisin variants capable of cleaving substrates containing basic residues” (Genentech, Inc., priority 1995, dated 1998)
Where a chain is given by its changes, count along the chain named. Names may count otherwise. Each block holds one molecule with its values, some of them ahead of it. Residues, ends and D or L forms follow the SMILES beside them.

Experiments:
[1] = biological target: T1, subtilisin BPN' variant G166D (Bacillus amyloliquefaciens, UniProt P00782, G273D); test: Kinetic analysis, hydrolysis of suc-AAPX-pna substrates; assay type: biochemical; details: Lys P1 versus Phe P1 substrate
T1 construct: correct folding and maturation of subtilisin requires autolytic cleavage of its propeptide; made in house; host or cells: Bacillus subtilis BG2036 (protease-deficient), secreted
T1 sequence (P00782 108-382 G273D): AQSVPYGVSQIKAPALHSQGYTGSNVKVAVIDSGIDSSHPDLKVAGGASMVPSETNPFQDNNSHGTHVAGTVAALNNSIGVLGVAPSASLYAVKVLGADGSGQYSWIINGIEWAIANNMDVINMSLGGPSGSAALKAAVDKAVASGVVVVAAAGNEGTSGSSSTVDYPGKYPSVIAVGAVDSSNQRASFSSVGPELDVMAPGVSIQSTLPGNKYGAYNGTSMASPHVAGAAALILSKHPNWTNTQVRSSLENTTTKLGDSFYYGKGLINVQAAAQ
From the text: To probe the effects of the G166E and G166D on specificity at the P1 position we used substrates having the form suc-AAPX-pna (SEQ ID NO: 69) where X was either Lys (SEQ ID NO. 58), Arg (SEQ ID NO. 59), Phe (SEQ ID NO. 56), Met (SEQ ID NO. 60) or Gln (SEQ ID NO. 61). Whereas the wild-type enzyme preferred Phe>Met>Lys>Arg>Gln, the G166E preferred Lys^~ Phe>Arg^~ Met>Gln, and G166D preferred Lys>Phe^~ Arg^~ Met>Gln. Thus, both the acidic substitutions at position 166 caused a shift in preference for basic residues at the P1 site, as previously reported (Wells, J. A., Powers, D. B., Bott, R. R., Graycar, T. P.and Estell, D. A. (1987a), Proc. Natl. Acad. Sci. USA 84:1219-1223).
(§1) Subtilisins were assayed by measuring the initial rates of hydrolysis of p-nitroanilide tetrapeptide substrates in 0.4 mL 20 mM Tris-Cl pH 8.2, 4% (v/v) dimethyl sulfoxide at (25±0.2)° C. as described previously (Estell, D. A., Graycar, T. P., Miller, J. V., Powers, D. B., Burnier, J. P., Ng, P. G. and Wells, J. A. (1986)Science 233:659-663). Enzyme concentrations (E)0 were determined spectrophotometrically using E280 nm 0.1%=1.17 (Matsubara, H.; Kasper, C B.; Brown, D. M.; and Smith, E. L. (1965)J. Biol. Chem.,240:1125-1130.), and were typically 5-50 nM in reactions. Initial rates were determined for nine to twelve different substrate concentrations over the range of 0.001-2.0 mM. […]

[2] = biological target: T2, subtilisin BPN' variant N62D/G166D (mature enzyme SEQ ID NO: 72) (Bacillus amyloliquefaciens, UniProt P00782, G273D/N169D); test: Kinetic analysis, hydrolysis of succinyl-tetrapeptide-pNA substrates; assay type: biochemical
T2 construct: made in house; host or cells: Bacillus subtilis BG2036 (protease-deficient), secreted
T2 sequence (P00782 108-382 N169D/G273D): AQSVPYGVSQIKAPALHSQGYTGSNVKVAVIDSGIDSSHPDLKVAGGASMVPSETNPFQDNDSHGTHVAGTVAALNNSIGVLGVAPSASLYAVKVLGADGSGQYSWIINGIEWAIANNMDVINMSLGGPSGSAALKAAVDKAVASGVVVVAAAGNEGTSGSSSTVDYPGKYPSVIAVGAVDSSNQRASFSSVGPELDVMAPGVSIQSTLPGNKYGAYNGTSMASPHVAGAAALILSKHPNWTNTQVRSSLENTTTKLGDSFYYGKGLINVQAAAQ
Description: (§2) The mature N62D/Y104D/G166D variant was purified and analyzed for its ability to hydrolyze several tetrapeptide-pNA substrates.
(§3) Kinetic analysis of WT, N62D/G166D, and N62D/Y104D/G166D subtilisin BPN'
(§4) Subtilisins were assayed by measuring the initial rates of hydrolysis of p-nitroanilide tetrapeptide substrates in 0.4 mL 20 mM Tris-Cl pH 8.2, 4% (v/v) dimethyl sulfoxide at (25±0.2)° C. as described previously (Estell, D. A., Graycar, T. P., Miller, J. V., Powers, D. B., Burnier, J. P., Ng, P. G. and Wells, J. A. (1986)Science 233:659-663). Enzyme concentrations (E)0 were determined spectrophotometrically using E280 nm 0.1%=1.17 (Matsubara, H.; Kasper, C B.; Brown, D. M.; and Smith, E. L. (1965)J. Biol. Chem.,240:1125-1130.), and were typically 5-50 nM in reactions. Initial rates were determined for nine to twelve different substrate concentrations over the range of 0.001-2.0 mM. Plots of initial rates (v) versus substrate concentration (S) were fitted to the Michaelis-Menton equation, [formula] to determine the kinetic constants kcat and Km (Fersht, A. in "Enzyme Structure and Mechanism", Second edition, Freeman and Co., N.Y.) using the program Kaleidagraph (Synergy Software, Reading, Pa.).

[3] = biological target: T3, subtilisin BPN' variant N62D/G166E (Bacillus amyloliquefaciens, UniProt P00782, G273E/N169D); test: Kinetic analysis, hydrolysis of suc-AAXX-pna substrates; assay type: biochemical; details: Lys-Lys versus Lys-Phe substrate
T3 construct: correct folding and maturation of subtilisin requires autolytic cleavage of its propeptide; made in house; host or cells: Bacillus subtilis BG2036 (protease-deficient), secreted
T3 sequence (P00782 108-382 N169D/G273E): as the sequence (P00782 108-382 G273D) above, with N62D, D166E counted along it
Description: Despite the less than additive effects seen for the two charged substitutions in the S2 site, we decided to combine the best S2 site variant (N62D) with either of the acidic substitutions in the S1 site. The two double mutants, N62D/G166E and N62D/G166D, were analyzed with substrates having the form, suc-AAXX-pna (SEQ ID NO. 71) where XX was either KK (SEQ ID NO. 66), KR (SEQ ID NO. 67), KF (SEQ ID NO. 62), PK (SEQ ID NO. 58), PF (SEQ ID NO. 56) or AF (SEQ ID NO. 63) (FIG. 4). The wild-type preference was AF>PF^~ KF>KK^~ PK>KR, whereas the double mutants had the preference KK>KR>KF>PK^~ AF>PF. […]
as §1

[4] = biological target: T4, subtilisin BPN' variant N62D/Y104D/G166D (SEQ ID NO: 75) (Bacillus amyloliquefaciens, UniProt P00782, G273D/N169D/Y211D); test: Kinetic analysis, hydrolysis of succinyl-tetrapeptide-pNA substrates; assay type: biochemical; details: relative to succinyl-RAKR-pNA
T4 construct: the mature enzyme +1 to +275; made in house; host or cells: Bacillus subtilis BG2036 (protease-deficient), secreted
T4 sequence (P00782 108-382 N169D/Y211D/G273D): T2 sequence (P00782 108-382 N169D/G273D) with Y104D
Description: as §2, §3, §4

[5] = biological target: T5, succinyl-AAKR-pNA
T5 sequence (peptide, N-terminal succinyl; C-terminal p-nitroanilide (pNA)): AAKR

[6] = biological target: T6, succinyl-AAPF-pNA
T6 sequence (peptide, N-terminal succinyl; C-terminal p-nitroanilide (pNA)): AAPF

[7] = substrate: C[C@H](NC(=O)CCC(=O)O)C(=O)N[C@@H](C)C(=O)N1CCC[C@H]1C(=O)N[C@@H](Cc1ccccc1)C(=O)Nc1ccc([N+](=O)[O-])cc1; test: Kinetic analysis, hydrolysis of succinyl-tetrapeptide-pNA substrates; assay type: biochemical, Bacillus amyloliquefaciens; details: 20 mM Tris-Cl pH 8.2, 4% DMSO, 25 C
Description: as §2, §3, §4

[8] = substrate: C[C@H](NC(=O)CCC(=O)O)C(=O)N[C@@H](C)C(=O)N[C@@H](CCCCN)C(=O)N[C@@H](CCCNC(=N)N)C(=O)Nc1ccc([N+](=O)[O-])cc1; test: as above; assay type: biochemical, Bacillus amyloliquefaciens; details: 20 mM Tris-Cl pH 8.2, 4% DMSO, 25 C
Description: as §2, §3, §4

[9] = biological target: T7, succinyl-KAKR-pNA
T7 sequence (peptide, N-terminal succinyl; C-terminal p-nitroanilide (pNA)): KAKR

[10] = biological target: T8, succinyl-RAKR-pNA
T8 sequence (peptide, N-terminal succinyl; C-terminal p-nitroanilide (pNA)): RAKR

[11] = substrate: C[C@H](NC(=O)[C@H](CCCCN)NC(=O)CCC(=O)O)C(=O)N[C@@H](CCCCN)C(=O)N[C@@H](CCCNC(=N)N)C(=O)Nc1ccc([N+](=O)[O-])cc1; test: Kinetic analysis, hydrolysis of succinyl-tetrapeptide-pNA substrates; assay type: biochemical, Bacillus amyloliquefaciens; details: other: N62D/Y104D/G166D, 20 mM Tris-Cl pH 8.2, 4% DMSO, 25 C
Description: as §2, §3, §4

[12] = substrate: C[C@H](NC(=O)[C@H](CCCNC(=N)N)NC(=O)CCC(=O)O)C(=O)N[C@@H](CCCCN)C(=O)N[C@@H](CCCNC(=N)N)C(=O)Nc1ccc([N+](=O)[O-])cc1; test: as above; assay type: biochemical, Bacillus amyloliquefaciens; details: other: N62D/Y104D/G166D, 20 mM Tris-Cl pH 8.2, 4% DMSO, 25 C
Description: as §2, §3, §4

[13] = biological target: T9, succinyl-Ala-Ala-Pro-Lys-pNa
T9 sequence (peptide, N-terminal succinyl; C-terminal p-nitroanilide (pNA)): AAPK

[14] = biological target: T10, succinyl-Ala-Ala-Lys-Lys-pNa
T10 sequence (peptide, N-terminal succinyl; C-terminal p-nitroanilide (pNA)): AAKK

[15] = biological target: hGH-AP fusion protein with substrate linker Asn-Leu-Met-Arg-Lys (E. coli); details: scale: times faster than the Thr-Ala-Ser-Arg-Arg and Asn-Leu-Thr-Ala-Arg fusions

Molecule: C[C@H](NC(=O)CCC(=O)O)C(=O)N[C@@H](C)C(=O)N1CCC[C@H]1C(=O)N[C@@H](CCCCN)C(=O)Nc1ccc([N+](=O)[O-])cc1 [Lys P1 substrate] (HELM PEPTIDE1{[O=C(O)CCC(=O)[*:2]].A.A.P.K.[O=[N+]([O-])c1ccc(N[*:1])cc1]}$$$$V2.0)
ratio of catalytic efficiencies, times faster cleaved than the Phe P1 substrate [1]: about 3 times

Molecule: C[C@H](NC(=O)CCC(=O)O)C(=O)N[C@@H](C)C(=O)N[C@@H](CCCCN)C(=O)N[C@@H](CCCCN)C(=O)Nc1ccc([N+](=O)[O-])cc1 [Lys-Lys substrate] (HELM PEPTIDE1{[O=C(O)CCC(=O)[*:2]].A.A.K.K.[O=[N+]([O-])c1ccc(N[*:1])cc1]}$$$$V2.0)
ratio of catalytic efficiencies, times faster cleaved than the Lys-Phe substrate ([2]; Lys-Lys versus Lys-Phe substrate): 18 times | ratio of catalytic efficiencies, times faster cleaved than the Lys-Phe substrate [3]: about 8 times

Molecule: C[C@H](NC(=O)CCC(=O)O)C(=O)N[C@@H](C)C(=O)N[C@@H](CCCCN)C(=O)N[C@@H](CCCNC(=N)N)C(=O)Nc1ccc([N+](=O)[O-])cc1 [succinyl-AAKR-pNA] (HELM PEPTIDE1{[O=C(O)CCC(=O)[*:2]].A.A.K.R.[O=[N+]([O-])c1ccc(N[*:1])cc1]}$$$$V2.0)
ratio of catalytic efficiency for succinyl-AAKR-pNA versus succinyl-AAPF-pNA [2]: 1.9×10^2 | catalytic efficiency (kcat/Km), fold less efficiently hydrolyzed than succinyl-RAKR-pNA [4]: 60 fold

kcat/Km, hydrolysis of succinyl-tetrapeptide-pNA [5]: 1700 M⁻¹ s⁻¹ | kcat/Km, hydrolysis of succinyl-tetrapeptide-pNA [6]: 260000 M⁻¹ s⁻¹
B1: subtilisin BPN' from Bacillus amyloliquefaciens, wild type (WT), SEQ ID NO: 90 (Bacillus amyloliquefaciens) (protein)
chain: T2 sequence (P00782 108-382 N169D/G273D) with D62N, D166G
notes: correct folding and maturation of subtilisin requires autolytic cleavage of its propeptide
Km ([7]; other: WT): 110 µM | kcat ([7]; other: WT): 29 s⁻¹ | kcat/Km ([7]; other: WT): 260000 M⁻¹ s⁻¹ | Km ([8]; other: WT): 1700 µM | kcat ([8]; other: WT): 2.8 s⁻¹

kcat/Km, hydrolysis of succinyl-tetrapeptide-pNA [5]: 8100 M⁻¹ s⁻¹ | kcat/Km, hydrolysis of succinyl-tetrapeptide-pNA [6]: 8 M⁻¹ s⁻¹ | kcat/Km, hydrolysis of succinyl-tetrapeptide-pNA [9]: 340000 M⁻¹ s⁻¹ | kcat/Km, hydrolysis of succinyl-tetrapeptide-pNA [10]: 490000 M⁻¹ s⁻¹
B2: subtilisin BPN' variant N62D/Y104D/G166D (SEQ ID NO: 75) (Bacillus amyloliquefaciens; G273D/N169D/Y211D) (protein)
chain: T2 sequence (P00782 108-382 N169D/G273D) with Y104D
notes: the mature enzyme +1 to +275; made in house; host or cells: Bacillus subtilis BG2036 (protease-deficient), secreted
Km ([8]; other: N62D/Y104D/G166D): 34 µM | kcat ([8]; other: N62D/Y104D/G166D): 0.27 s⁻¹ | kcat/Km ([8]; other: N62D/Y104D/G166D): 8100 M⁻¹ s⁻¹ | Km [11]: 29 µM | kcat [11]: 9.8 s⁻¹ | kcat/Km [11]: 340000 M⁻¹ s⁻¹ | Km [12]: 23 µM | kcat [12]: 11 s⁻¹ | kcat/Km [12]: 490000 M⁻¹ s⁻¹

ratio of catalytic efficiencies, hydrolysis of succinyl-tetrapeptide-pNA (times faster than the Phe P1 substrate) [13]: 3
B3: subtilisin BPN' variant G166D (enzyme)
chain: T2 sequence (P00782 108-382 N169D/G273D) with D62N

ratio of catalytic efficiencies, hydrolysis of succinyl-tetrapeptide-pNA (times faster than the Lys-Phe substrate) [14]: 8
B4: subtilisin BPN' variant N62D/G166E (enzyme)
chain: T2 sequence (P00782 108-382 N169D/G273D) with D166E

kcat/Km, hydrolysis of succinyl-tetrapeptide-pNA [5]: 370000 M⁻¹ s⁻¹ | kcat/Km, hydrolysis of succinyl-tetrapeptide-pNA [6]: 1900 M⁻¹ s⁻¹ | ratio of catalytic efficiencies, hydrolysis of succinyl-tetrapeptide-pNA (times faster than a Lys-Phe substrate) [14]: 18 | rate of cleavage of the fusion protein from the hGH receptor plate (released AP activity) [15]: 10
B5: subtilisin BPN' variant N62D/G166D (mature enzyme SEQ ID NO: 72) (Bacillus amyloliquefaciens; G273D/N169D) (protein)
chain: T2 sequence (P00782 108-382 N169D/G273D)
notes: made in house; host or cells: Bacillus subtilis BG2036 (protease-deficient), secreted
Km ([7]; other: N62D/G166D): 1800 µM | kcat ([7]; other: N62D/G166D): 3.4 s⁻¹ | kcat/Km ([7]; other: N62D/G166D): 1900 M⁻¹ s⁻¹ | Km ([8]; other: N62D/G166D): 41 µM | kcat ([8]; other: N62D/G166D): 15 s⁻¹ | kcat/Km ([8]; other: N62D/G166D): 370000 M⁻¹ s⁻¹
